Test results published in the supplement of paper PMC10126150.
± gives the standard deviation of the averaged measurements.
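Further: ATP exposure 15 min at 22 °C before imaging.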

The sequences below were run on ATP (assay: switch fluorescence ratio, 500 uM ATP over buffer (Cy3 cluster intensity, sum of 5 cycles each) (fold (ratio)); higher = stronger signal-on switching upon ATP binding; sequences stand for … in TCGTCGGCAGCGTCAGATGTGTATAAGAGACAGTTTTTTTTTTTTTTTTTTTTTTTTT…TC). Conditions: aptamer strand: ATP DNA aptamer (quencher-CACCTGGGGGAGTATTGCGGAGGAAGG + anchor), 100 nM annealed; ATP concentration: 500 uM.
How it was run: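 Clusters with intensities outside 100-1000 RFU were excluded. The remaining Cy3-labelled switching-strand clusters on a modified Illumina MiSeq flow-cell had been annealed to 100 nM quencher-labelled ATP aptamer and imaged in selection buffer, then after 15 min with 500 uM ATP at 22 °C, for five cycles separated by NaOH stripping and re-annealing. The fluorescence ratio, averaged per switch-domain sequence, is each cluster's summed target-cycle Cy3 intensity over its summed buffer-cycle Cy3 intensity.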
Work on ATAGTCATAT yielded a switch fluorescence ratio of 0.9978 ± 0.0017.
In the case of CGCTAATCAA, the switch fluorescence ratio is reported as 1.09 ± 0.042.
GTGGGTCAGG gave a switch fluorescence ratio of 1.01 ± 0.013.
With GCATGAGGGT the switch fluorescence ratio was 1.03 ± 0.072.
TTAACATATA gave a switch fluorescence ratio of 1.017 ± 0.0088.
With GGGGTAGTTC the switch fluorescence ratio was 1.01 ± 0.028.
For AAGCGTGAGG, the switch fluorescence ratio was 1.04 ± 0.047.
In the case of CGCTATGGGA, the switch fluorescence ratio is reported as 1.02 ± 0.026.
CTGGTTGATT was tested, and the switch fluorescence ratio was 0.997 ± 0.04.
GCGGGGGAGG gave a switch fluorescence ratio of 0.993 ± 0.029.
With AAATGCAGGT the switch fluorescence ratio was 0.9908 ± 0.0061.
In the case of TCGGAGTTTA, the switch fluorescence ratio is reported as 1.04 ± 0.016.
Sequence AGTTAGGCAA has a switch fluorescence ratio of 1.01 ± 0.014.
Work on ATAATTAAGG yielded a switch fluorescence ratio of 0.99 ± 0.028.
In the case of CTGGGTGTTC, the switch fluorescence ratio is reported as 1.05 ± 0.035.
For CCGGACCAGA, the switch fluorescence ratio was 1.15 ± 0.057.
For TGTGAGTTGG, the switch fluorescence ratio was 1 ± 0.029.
TTTATAATCA gave a switch fluorescence ratio of 0.967 ± 0.011.
TCCATTAAAA gave a switch fluorescence ratio of 0.976 ± 0.036.
In the case of AAGGCGAGTA, the switch fluorescence ratio is reported as 0.997 ± 0.017.
TTGGGGAAGG was tested, and the switch fluorescence ratio was 1.04 ± 0.034.
With ATGTAGTCTT the switch fluorescence ratio was 1 ± 0.0038.
GTGCTAAATA showed a switch fluorescence ratio of 1.02 ± 0.0067.
In the case of ACGGCCGGGG, the switch fluorescence ratio is reported as 1.04 ± 0.027.
With ACATATCTTT the switch fluorescence ratio was 1.025 ± 0.0012.
In the case of GGCGGGGGCT, the switch fluorescence ratio is reported as 0.99 ± 0.018.
TGGGTAACGT showed a switch fluorescence ratio of 0.987 ± 0.033.
In the case of GCGTGAGGTG, the switch fluorescence ratio is reported as 1.01 ± 0.048.
With CTTGTGTTCT the switch fluorescence ratio was 0.9964 ± 0.004.
With CGTTTTATCT the switch fluorescence ratio was 1.03 ± 0.025.
With TGAAGTTGTA the switch fluorescence ratio was 0.965 ± 0.035.
Sequence TTTGCTTATG has a switch fluorescence ratio of 0.9924 ± 0.0045.
In the case of GGAAGGAGGG, the switch fluorescence ratio is reported as 1 ± 0.033.
Work on TTTTATGTG yielded a switch fluorescence ratio of 1.01 ± 0.021.
Work on GCGGCGGAGG yielded a switch fluorescence ratio of 0.995 ± 0.032.
Work on GACGTTTATG yielded a switch fluorescence ratio of 0.949 ± 0.099.
Sequence ACGGTATGTG has a switch fluorescence ratio of 1.03 ± 0.033.
AGGGGTTATG showed a switch fluorescence ratio of 1 ± 0.021.
TGGGGGAGGT gave a switch fluorescence ratio of 1 ± 0.027.
ATGGTGTCTA gave a switch fluorescence ratio of 0.981 ± 0.038.
For CAGTTTTATC, the switch fluorescence ratio was 1.012 ± 0.0039.
CTAGACAGGG gave a switch fluorescence ratio of 1.028 ± 0.0022.
In the case of CATTAGACAT, the switch fluorescence ratio is reported as 0.994 ± 0.026.
Work on ATCAATGTGC yielded a switch fluorescence ratio of 0.962 ± 0.088.
In the case of TTCAGGGGTC, the switch fluorescence ratio is reported as 1.02 ± 0.018.
CCGGGGTGTG was tested, and the switch fluorescence ratio was 1.08 ± 0.012.
GATTTATACT showed a switch fluorescence ratio of 1.06 ± 0.014.
For TTTGTGAATT, the switch fluorescence ratio was 0.972 ± 0.012.
In the case of CCAAAGAGGG, the switch fluorescence ratio is reported as 0.993 ± 0.02.
Sequence CTAAAGTGTG has a switch fluorescence ratio of 0.9858 ± 0.0098.
For CTACGAAGGG, the switch fluorescence ratio was 1.04 ± 0.021.
ATGTTTAAG gave a switch fluorescence ratio of 1.012 ± 0.0094.
TCCATTAGTT was tested, and the switch fluorescence ratio was 1.04 ± 0.069.
With TTTTTAAAGG the switch fluorescence ratio was 0.976 ± 0.013.
TTTAAAACGC was tested, and the switch fluorescence ratio was 1.01 ± 0.099.
With AGGCTGTTTT the switch fluorescence ratio was 1.02 ± 0.016.
TGACGTTAAA showed a switch fluorescence ratio of 1.04 ± 0.067.
In the case of TTGTTTGGCT, the switch fluorescence ratio is reported as 1.01 ± 0.015.
With TTGAGAATT the switch fluorescence ratio was 1.02 ± 0.051.
In the case of GGTGTAGAGG, the switch fluorescence ratio is reported as 1.012 ± 0.0022.
GGGTTTGAT was tested, and the switch fluorescence ratio was 1.03 ± 0.025.
Sequence AATCGATCGG has a switch fluorescence ratio of 1.01 ± 0.028.
For CGGATGGAGG, the switch fluorescence ratio was 0.988 ± 0.042.
TTGGGTATAG was tested, and the switch fluorescence ratio was 1.02 ± 0.028.
For TTGCCTCGTT, the switch fluorescence ratio was 1.05 ± 0.023.
Work on TCTATAAGTT yielded a switch fluorescence ratio of 1.02 ± 0.044.
ATAATTGGGT showed a switch fluorescence ratio of 0.993 ± 0.022.
For AAAATAGGGG, the switch fluorescence ratio was 1.04 ± 0.044.
AGGGCTGGGG gave a switch fluorescence ratio of 0.973 ± 0.019.
With CGGATTTAAG the switch fluorescence ratio was 0.9979 ± 0.0066.
AGGGGAAAAC gave a switch fluorescence ratio of 1.03 ± 0.044.
TTAGCGGGGG showed a switch fluorescence ratio of 1.03 ± 0.06.
With TAGTCAGCC the switch fluorescence ratio was 1.01 ± 0.029.
For AGCAATTTCG, the switch fluorescence ratio was 1.42 ± 0.081.
TATTCGCCCA gave a switch fluorescence ratio of 1.11 ± 0.2.
In the case of GCCAAAACCT, the switch fluorescence ratio is reported as 2 ± 0.76.
TATAGCATGT was tested, and the switch fluorescence ratio was 1.038 ± 0.007.
AATTTATAAT showed a switch fluorescence ratio of 1.01 ± 0.036.
Work on GGTAAAGACG yielded a switch fluorescence ratio of 0.992 ± 0.013.
In the case of CGCTACGATG, the switch fluorescence ratio is reported as 1.082 ± 0.0078.
In the case of TCACTTGGGT, the switch fluorescence ratio is reported as 0.996 ± 0.036.
In the case of GGAACCGGGT, the switch fluorescence ratio is reported as 1.029 ± 0.0086.
GCCGGGGTCG showed a switch fluorescence ratio of 1.02 ± 0.037.
Work on CGGGGGTAAG yielded a switch fluorescence ratio of 0.991 ± 0.027.
Sequence AGGGGCTGGG has a switch fluorescence ratio of 0.99 ± 0.017.
TTTAGAGGCT was tested, and the switch fluorescence ratio was 1 ± 0.012.
Work on ATGGTAAGGG yielded a switch fluorescence ratio of 0.991 ± 0.026.
For GACGGTAGGG, the switch fluorescence ratio was 0.969 ± 0.051.
In the case of GTTGCGAGGT, the switch fluorescence ratio is reported as 0.9872 ± 0.004.
For GTATGTGGGT, the switch fluorescence ratio was 1.023 ± 0.0072.
Work on GCAATGGTAC yielded a switch fluorescence ratio of 2.21 ± 0.098.
With AGGTAGTGTG the switch fluorescence ratio was 0.989 ± 0.014.
TTTACCGGCG gave a switch fluorescence ratio of 1.02 ± 0.051.
For TTACAAGACG, the switch fluorescence ratio was 1.032 ± 0.0049.
GTGATTTTTG showed a switch fluorescence ratio of 1.01 ± 0.063.
ATTCGGGTTT showed a switch fluorescence ratio of 1.05 ± 0.066.
With ACTCGGTTGG the switch fluorescence ratio was 1.03 ± 0.037.
With ACTTTTGGGG the switch fluorescence ratio was 1.005 ± 0.0023.
CTGGGTTTGG gave a switch fluorescence ratio of 1 ± 0.025.
CATTATGTTG was tested, and the switch fluorescence ratio was 0.969 ± 0.036.
